Laboratory results as given in PMC2266763, “Dimerization of the transmembrane domain of amyloid precursor proteins and familial Alzheimer's disease mutants” (BMC Neuroscience, 2008).

B1: wild-type APP-TM peptide [modified: acceptor version: Glu with the fluorescent group EDANS covalently linked to its sidechain, after the N-terminal Lys-tag (in place of the Trp of the donor version); acceptor version: Glu with … (parent)
chain 1: GAIIGLMVGGVVIATVIVITLVML
chain 2: GAIIGLMVGGVVIATVIVITLVML
B2: wild-type APP-TM peptide [modified: acceptor version: Glu with the fluorescent group EDANS covalently linked to its sidechain, after the N-terminal Lys-tag (in place of the Trp of the donor version); acceptor version: Glu with … (parent)
chain: GAIIGLMVGGVVIATVIVITLVML

Variants of: B1
Experiment: FRET
Details: 50 µM total peptide concentration, equimolar wild-type and mutant (open bar), parent: 0.73, read off a plot

Row | Variant | response
1 | chain 1 GAIIGLMVGGVVIAIVIVITLVML | 0.44 A/D ratio
2 | chain 1 GAIIGLMVGGVVIATVIGITLVML | 1.6 A/D ratio
3 | chain 1 GAIIGLMVGGVVIATVIFITLVML | 0.43 A/D ratio

Same assay, conditions: 20 mM SDS, equimolar Trp-labeled wild-type and Edans-labeled V717G, 50 µM total peptide concentration (highest point of the curve), read off a plot

Row | Variant | response
4 | chain 1 GAIIGLMVGGVVIATVIGITLVML | 1.6 A/D ratio

Variants of: B2
Experiment: FRET
Details: with itself; 50 µM total peptide concentration; homodimer (solid bar); parent: 0.73; read off a plot

Row | Variant | response
5 | GAIIGLMVGGVVIAIVIVITLVML | 0.42 A/D ratio
